Experimental data: patent US20140087995A1 (published 2014)
Numbered stars: 1 amine (or outer) side, 2 acyl side, 3 side chain; on linkers, the order of the positions; unused ones are H or OH. Bridge positions count the residues as written; N and C are the ends. Side chains are listed from the residue outwards. Ends that are not written are not given here. * marks the point of attachment. C20 diacid = O=C(O)CCCCCCCCCCCCCCCCCCC(=O)*; γGlu = O=C(O)[C@H](CCC(=O)[*:2])N[*:1]; AEEA = NCCOCCOCC(=O)O

T1: human calcitonin receptor (human, UniProt P30988 25-474)
T1 sequence (looked up): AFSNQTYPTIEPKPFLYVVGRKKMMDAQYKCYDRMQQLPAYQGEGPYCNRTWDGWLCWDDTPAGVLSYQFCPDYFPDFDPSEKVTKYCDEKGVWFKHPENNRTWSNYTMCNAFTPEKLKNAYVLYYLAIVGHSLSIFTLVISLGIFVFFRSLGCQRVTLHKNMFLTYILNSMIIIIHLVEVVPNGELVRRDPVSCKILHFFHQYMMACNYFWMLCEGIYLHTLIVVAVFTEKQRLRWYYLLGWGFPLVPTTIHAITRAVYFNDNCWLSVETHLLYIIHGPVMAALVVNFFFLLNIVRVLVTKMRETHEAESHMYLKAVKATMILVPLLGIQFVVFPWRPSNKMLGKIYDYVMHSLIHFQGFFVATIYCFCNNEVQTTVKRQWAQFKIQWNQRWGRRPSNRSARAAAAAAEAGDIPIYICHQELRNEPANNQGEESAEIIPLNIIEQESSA

B1: N^ε1-[2-[2-[2-[[(4S)-4-carboxy-4-(19-carboxynonadecanoylamino)butanoyl]amino]ethoxy]ethoxy]acetyl]-[Ser14,Arg17,Pro21,Pro27,Pro31]-h-amylin (peptide)
peptide: K([AEEA-γGlu-C20 diacid])CNTATCATQRLASFLRHSSPNFGAIPSSTPVGSNTY-NH2
modifications: disulfide 2-7; N-terminus assumed
SMILES: CC[C@H](C)[C@H](NC(=O)[C@H](C)NC(=O)CNC(=O)[C@H](Cc1ccccc1)NC(=O)[C@H](CC(N)=O)NC(=O)[C@@H]1CCCN1C(=O)[C@H](CO)NC(=O)[C@H](CO)NC(=O)[C@H](Cc1c[nH]cn1)NC(=O)[C@H](CCCNC(=N)N)NC(=O)[C@H](CC(C)C)NC(=O)[C@H](Cc1ccccc1)NC(=O)[C@H](CO)NC(=O)[C@H](C)NC(=O)[C@H](CC(C)C)NC(=O)[C@H](CCCNC(=N)N)NC(=O)[C@H](CCC(N)=O)NC(=O)[C@@H](NC(=O)[C@H](C)NC(=O)[C@@H]1CSSC[C@H](NC(=O)[C@@H](N)CCCCNC(=O)COCCOCCNC(=O)CC[C@H](NC(=O)CCCCCCCCCCCCCCCCCCC(=O)O)C(=O)O)C(=O)N[C@@H](CC(N)=O)C(=O)N[C@@H]([C@@H](C)O)C(=O)N[C@@H](C)C(=O)N[C@@H]([C@@H](C)O)C(=O)N1)[C@@H](C)O)C(=O)N1CCC[C@H]1C(=O)N[C@@H](CO)C(=O)N[C@@H](CO)C(=O)N[C@H](C(=O)N1CCC[C@H]1C(=O)N[C@H](C(=O)NCC(=O)N[C@@H](CO)C(=O)N[C@@H](CC(N)=O)C(=O)N[C@H](C(=O)N[C@@H](Cc1ccc(O)cc1)C(N)=O)[C@@H](C)O)C(C)C)[C@@H](C)O
notes: also called compound 73
B2: N^ε1-[(4S)-4-carboxy-4-(19-carboxynonadecanoylamino)butanoyl]-[Arg14,Arg17,Pro21,Pro27,Pro34]-h-amylin (peptide)
peptide: K([γGlu-C20 diacid])CNTATCATQRLARFLRHSSPNFGAIPSSTNVGPNTY-NH2
modifications: disulfide 2-7; N-terminus assumed
SMILES: CC[C@H](C)[C@H](NC(=O)[C@H](C)NC(=O)CNC(=O)[C@H](Cc1ccccc1)NC(=O)[C@H](CC(N)=O)NC(=O)[C@@H]1CCCN1C(=O)[C@H](CO)NC(=O)[C@H](CO)NC(=O)[C@H](Cc1c[nH]cn1)NC(=O)[C@H](CCCNC(=N)N)NC(=O)[C@H](CC(C)C)NC(=O)[C@H](Cc1ccccc1)NC(=O)[C@H](CCCNC(=N)N)NC(=O)[C@H](C)NC(=O)[C@H](CC(C)C)NC(=O)[C@H](CCCNC(=N)N)NC(=O)[C@H](CCC(N)=O)NC(=O)[C@@H](NC(=O)[C@H](C)NC(=O)[C@@H]1CSSC[C@H](NC(=O)[C@@H](N)CCCCNC(=O)CC[C@H](NC(=O)CCCCCCCCCCCCCCCCCCC(=O)O)C(=O)O)C(=O)N[C@@H](CC(N)=O)C(=O)N[C@@H]([C@@H](C)O)C(=O)N[C@@H](C)C(=O)N[C@@H]([C@@H](C)O)C(=O)N1)[C@@H](C)O)C(=O)N1CCC[C@H]1C(=O)N[C@@H](CO)C(=O)N[C@@H](CO)C(=O)N[C@H](C(=O)N[C@@H](CC(N)=O)C(=O)N[C@H](C(=O)NCC(=O)N1CCC[C@H]1C(=O)N[C@@H](CC(N)=O)C(=O)N[C@H](C(=O)N[C@@H](Cc1ccc(O)cc1)C(N)=O)[C@@H](C)O)C(C)C)[C@@H](C)O
notes: also called compound 65
B3: N^ε1-[(4S)-4-carboxy-4-(19-carboxynonadecanoylamino)butanoyl]-[Arg14,Arg17,Pro21,Pro27]-h-amylin (peptide)
peptide: K([γGlu-C20 diacid])CNTATCATQRLARFLRHSSPNFGAIPSSTNVGSNTY-NH2
modifications: disulfide 2-7; N-terminus assumed
SMILES: CC[C@H](C)[C@H](NC(=O)[C@H](C)NC(=O)CNC(=O)[C@H](Cc1ccccc1)NC(=O)[C@H](CC(N)=O)NC(=O)[C@@H]1CCCN1C(=O)[C@H](CO)NC(=O)[C@H](CO)NC(=O)[C@H](Cc1c[nH]cn1)NC(=O)[C@H](CCCNC(=N)N)NC(=O)[C@H](CC(C)C)NC(=O)[C@H](Cc1ccccc1)NC(=O)[C@H](CCCNC(=N)N)NC(=O)[C@H](C)NC(=O)[C@H](CC(C)C)NC(=O)[C@H](CCCNC(=N)N)NC(=O)[C@H](CCC(N)=O)NC(=O)[C@@H](NC(=O)[C@H](C)NC(=O)[C@@H]1CSSC[C@H](NC(=O)[C@@H](N)CCCCNC(=O)CC[C@H](NC(=O)CCCCCCCCCCCCCCCCCCC(=O)O)C(=O)O)C(=O)N[C@@H](CC(N)=O)C(=O)N[C@@H]([C@@H](C)O)C(=O)N[C@@H](C)C(=O)N[C@@H]([C@@H](C)O)C(=O)N1)[C@@H](C)O)C(=O)N1CCC[C@H]1C(=O)N[C@@H](CO)C(=O)N[C@@H](CO)C(=O)N[C@H](C(=O)N[C@@H](CC(N)=O)C(=O)N[C@H](C(=O)NCC(=O)N[C@@H](CO)C(=O)N[C@@H](CC(N)=O)C(=O)N[C@H](C(=O)N[C@@H](Cc1ccc(O)cc1)C(N)=O)[C@@H](C)O)C(C)C)[C@@H](C)O
notes: also called compound 83
B4: N^ε1-[2-[2-[2-[[(4S)-4-carboxy-4-(19-carboxynonadecanoylamino)butanoyl]amino]ethoxy]ethoxy]acetyl]-[Thr14,Arg17,Pro21,Pro27,Pro31]-h-amylin (peptide)
peptide: K([AEEA-γGlu-C20 diacid])CNTATCATQRLATFLRHSSPNFGAIPSSTPVGSNTY-NH2
modifications: disulfide 2-7; N-terminus assumed
SMILES: CC[C@H](C)[C@H](NC(=O)[C@H](C)NC(=O)CNC(=O)[C@H](Cc1ccccc1)NC(=O)[C@H](CC(N)=O)NC(=O)[C@@H]1CCCN1C(=O)[C@H](CO)NC(=O)[C@H](CO)NC(=O)[C@H](Cc1c[nH]cn1)NC(=O)[C@H](CCCNC(=N)N)NC(=O)[C@H](CC(C)C)NC(=O)[C@H](Cc1ccccc1)NC(=O)[C@@H](NC(=O)[C@H](C)NC(=O)[C@H](CC(C)C)NC(=O)[C@H](CCCNC(=N)N)NC(=O)[C@H](CCC(N)=O)NC(=O)[C@@H](NC(=O)[C@H](C)NC(=O)[C@@H]1CSSC[C@H](NC(=O)[C@@H](N)CCCCNC(=O)COCCOCCNC(=O)CC[C@H](NC(=O)CCCCCCCCCCCCCCCCCCC(=O)O)C(=O)O)C(=O)N[C@@H](CC(N)=O)C(=O)N[C@@H]([C@@H](C)O)C(=O)N[C@@H](C)C(=O)N[C@@H]([C@@H](C)O)C(=O)N1)[C@@H](C)O)[C@@H](C)O)C(=O)N1CCC[C@H]1C(=O)N[C@@H](CO)C(=O)N[C@@H](CO)C(=O)N[C@H](C(=O)N1CCC[C@H]1C(=O)N[C@H](C(=O)NCC(=O)N[C@@H](CO)C(=O)N[C@@H](CC(N)=O)C(=O)N[C@H](C(=O)N[C@@H](Cc1ccc(O)cc1)C(N)=O)[C@@H](C)O)C(C)C)[C@@H](C)O
notes: also called compound 75
B5: N^ε1-[(4S)-4-carboxy-4-(19-carboxynonadecanoylamino)butanoyl]-[Arg14,Arg17,Pro21,Pro27,Pro31]-h-amylin (peptide)
peptide: K([γGlu-C20 diacid])CNTATCATQRLARFLRHSSPNFGAIPSSTPVGSNTY-NH2
modifications: disulfide 2-7; N-terminus assumed
SMILES: CC[C@H](C)[C@H](NC(=O)[C@H](C)NC(=O)CNC(=O)[C@H](Cc1ccccc1)NC(=O)[C@H](CC(N)=O)NC(=O)[C@@H]1CCCN1C(=O)[C@H](CO)NC(=O)[C@H](CO)NC(=O)[C@H](Cc1c[nH]cn1)NC(=O)[C@H](CCCNC(=N)N)NC(=O)[C@H](CC(C)C)NC(=O)[C@H](Cc1ccccc1)NC(=O)[C@H](CCCNC(=N)N)NC(=O)[C@H](C)NC(=O)[C@H](CC(C)C)NC(=O)[C@H](CCCNC(=N)N)NC(=O)[C@H](CCC(N)=O)NC(=O)[C@@H](NC(=O)[C@H](C)NC(=O)[C@@H]1CSSC[C@H](NC(=O)[C@@H](N)CCCCNC(=O)CC[C@H](NC(=O)CCCCCCCCCCCCCCCCCCC(=O)O)C(=O)O)C(=O)N[C@@H](CC(N)=O)C(=O)N[C@@H]([C@@H](C)O)C(=O)N[C@@H](C)C(=O)N[C@@H]([C@@H](C)O)C(=O)N1)[C@@H](C)O)C(=O)N1CCC[C@H]1C(=O)N[C@@H](CO)C(=O)N[C@@H](CO)C(=O)N[C@H](C(=O)N1CCC[C@H]1C(=O)N[C@H](C(=O)NCC(=O)N[C@@H](CO)C(=O)N[C@@H](CC(N)=O)C(=O)N[C@H](C(=O)N[C@@H](Cc1ccc(O)cc1)C(N)=O)[C@@H](C)O)C(C)C)[C@@H](C)O
notes: also called compound 63
B6: N^ε1-[(4S)-4-carboxy-4-(19-carboxynonadecanoylamino)butanoyl]-[Ala14,Arg17,Pro21,Pro27,His34]-h-amylin (peptide)
peptide: K([γGlu-C20 diacid])CNTATCATQRLAAFLRHSSPNFGAIPSSTNVGHNTY-NH2
modifications: disulfide 2-7; N-terminus assumed
SMILES: CC[C@H](C)[C@H](NC(=O)[C@H](C)NC(=O)CNC(=O)[C@H](Cc1ccccc1)NC(=O)[C@H](CC(N)=O)NC(=O)[C@@H]1CCCN1C(=O)[C@H](CO)NC(=O)[C@H](CO)NC(=O)[C@H](Cc1c[nH]cn1)NC(=O)[C@H](CCCNC(=N)N)NC(=O)[C@H](CC(C)C)NC(=O)[C@H](Cc1ccccc1)NC(=O)[C@H](C)NC(=O)[C@H](C)NC(=O)[C@H](CC(C)C)NC(=O)[C@H](CCCNC(=N)N)NC(=O)[C@H](CCC(N)=O)NC(=O)[C@@H](NC(=O)[C@H](C)NC(=O)[C@@H]1CSSC[C@H](NC(=O)[C@@H](N)CCCCNC(=O)CC[C@H](NC(=O)CCCCCCCCCCCCCCCCCCC(=O)O)C(=O)O)C(=O)N[C@@H](CC(N)=O)C(=O)N[C@@H]([C@@H](C)O)C(=O)N[C@@H](C)C(=O)N[C@@H]([C@@H](C)O)C(=O)N1)[C@@H](C)O)C(=O)N1CCC[C@H]1C(=O)N[C@@H](CO)C(=O)N[C@@H](CO)C(=O)N[C@H](C(=O)N[C@@H](CC(N)=O)C(=O)N[C@H](C(=O)NCC(=O)N[C@@H](Cc1c[nH]cn1)C(=O)N[C@@H](CC(N)=O)C(=O)N[C@H](C(=O)N[C@@H](Cc1ccc(O)cc1)C(N)=O)[C@@H](C)O)C(C)C)[C@@H](C)O
notes: also called compound 93

Target: T1, human calcitonin receptor
Assay: cell-based or functional assay

| Binder | hCTR funct. EC50 [nM] |
| --- | --- |
| B1 | 0.961 |
| B2 | 9.33 |
| B3 | 16.8 |
| B4 | 9.07 |
| B5 | 5.13 |
| B6 | 1.15 |
